The source of these data is US20040171074A1, “Structures of substrate binding pockets of SCF complexes” (MOUNT SINAI HOSPITAL, priority 2002, published 2004).

The subject of one assay is cdc4Δ strain. The assay can be described thus: plasmid shuffle assay: complementation of a cdc4Δ strain by CDC4 alleles. The assay is classed as cell-based, yeast. The following applies: viability of cdc4Δ strain on 5-FOA, 2 days at 30° C. As to the method: (§1) All mutants on a TRP1 ARS CEN plasmid were transformed into a cdc4Δ strain (MT 1259) containing a wildtype copy of CDC4 on a URA3 ARS CEN plasmid. Cells were plated on either Trp^−Ura^− or 5-FOA medium for 2 days at 30° C. Viable cells on 5-FOA were grown in Trp medium and transformed with either wild type GAL1-SIC1, GAL1-SIC T45A, or GAL1-SIC T33V on a LEU2 ARS CEN pasmid. Cells were then plated on Leu- Trp-plates containing either glucose or galactose and incubated for 2 days at 30° C.
(§2) Cdc4 functional assays. CDC4 mutant alleles were assessed for complementation of a cdc4A strain in a plasmid shuffle assay (Nash et al., 2001). Sensitivity to SIC1 dosage was determined by transformation with pMT837 (GAL1-SIC1) or pMT767 (GAL1-SIC1^T33V) and plating on glucose medium or galactose medium. For in vitro capture of phospho-Sic1 by Cdc4, 0.5 μg of bacterially-expressed ^HIS6Sic1 was phosphorylated with immobilized Cln2-Cdc28 kinase from baculovirus-infected Sf9 cells and then incubated with 1 μg of immobilized wild type or mutant Cdc4^263-744-GST-Skp1, at 4° C. for 1 hr, washed 4 times and visualized by anti-Sic1 immunoblot. For isoelectric focusing (IEF)-2D gel analyses, an evenly distributed pool of phospho-Sic1 isoforms was generated by combining different time points in a Sic1 phosphorylation reaction. 2.5 μg of the phospho-Sic1 pool was bound to 5 μg of immobilized wild type or mutant Cdc4^1-744-GST-Skp1. Captured isoforms were separated by denaturing IEF-2D gel electrophoresis using pH3-10NL Immobiline gel strips (Amersham) and visualized by anti-Sic1 immunoblot. Alternatively, the pool of phospho-Sic1 isoforms was incubated in solution with a ubiquitination reaction mix containing ATP, ubiquitin, yeast E1, Cdc34 and either wild type or mutant SCF^Cdc4 complex, composed of a 1:1 ratio of bacterial Cdc4-GST-Skp1 and insect cell-produced Cdc53-Rbx1, at 30° C. for 1 h as previously described (Nash et al., 2001).

Another assay has as its system phospho-Sic1. The assay can be described thus: P-Sic1 pull down: in vitro capture of phospho-Sic1 on immobilized wild type or mutant Cdc4-GST-Skp1, anti-Sic1 immunoblot. The assay is classed as binding, yeast. The note with it: Sic1 phosphorylated with Cln2-Cdc28, captured onto GST-Skp1/Cdc4 resin, anti-Sic1 detection. As for the experimental part:
(§3) Mutational analysis of the CPD binding surface. Mutants were tested in vitro by ability to bind phosphorylated Sic1 and then captured onto GST-Skp1/Cdc4 resin and detected with anti-sic1 antibody. Mutants were tested in vivo by ability to degrade GAL1-SIC1 or various phosphorylation mutants. Sites are as follows: 3=Thr 33, Thr 45, Ser 76; 4=Thr 5, Thr 33, Thr 45, Ser 76; 5=Thr 2, Thr 5, Thr 33, Thr 45, Ser 76; 6=Thr 2, Thr 5, Thr 33, Thr 45, Ser 69, Ser 76; 7=Thr 2, Thr 5, Thr 33, Thr 45, Ser 69, Ser 76, Ser 80. GAL1-SIC1 plasmids were transformed into a cdc4Δ strain containing a copy of CDC4 on a TRP1 ARS CEN plasmid. Strains were incubated for 2 days at 30° C.
Bacterially expressed His6-Sic1 was phosphorylated with Cln2-Cdc28 kinase purified from baculovirus infected Sf9 cells as described before (Nature paper). 1 ug of WT or mutant Cdc4-GST-Skp1, immoblized on GSH-Sepharose resin, was incubated with 0.5 ug phospho-Sic1 at 4 C for 1 h and washed 4 times. Captured complexes were resolved on SDS-PAGE and Sic1 visualized by anti-Sic1 Western blotting and ECL. For IEF-2D analysis, several Sic1 phosphorylation reactions were carried out for different time periods to obtain a spectrum of Sic1 that were phosphorylated at different numbers of its nine CDK sites. This pool of phospho-Sic1 (2.5 ug) was incubated with 5 μg of WT or mutant Cdc4-GST-Skp1 as described above. Different phosphorylation states of Sic1 were separated by denaturing isoelectric focusing (IEF)-2D gel electrophoresis and visualized by anti-Sic1 Western blotting and ECL. IEF was performed using pH 3-10NL Immobiline gel strips and IPGphore IEF system (Amersham pharmacia).
as §2
On the technique in general: In western blotting, separated proteins are transferred to a membrane and probed.

Another assay has as its target T1, Skp1 (Saccharomyces cerevisiae, UniProt P52286).
T1 construct: GST (N); made in house; host or cells: bacteria
Briefly: Skp1 binding in vitro (pull down). Also noted: species or system yeast. The source says: In order to probe the functional importance of amino acid residues on the highly conserved peptide binding surface, a panel of Cdc4 mutants (both single and double mutant) were generated and tested each for its ability to bind phospho Sic1 and Skp1 in vitro using a pull down assay and for its ability to substitute for wt-cdc4 in vivo using a cell viability assay. Of 12 single site mutants tested, only Arg 467. Arg485Ala Arg534Ala, and Trp 426 abolished both cell viability in vivo and phosphoSic1 binding in vitro. Together, these residues compose most of the interaction surface with the pThr, Pro CPD core. […] Presumably in the context of the full SCF complex in vivo this mutant is sufficiently well behaved to bind phospho Sic1.

The test system of assay [1] is cdc4Δ strain overexpressing SIC1. The assay can be described thus: sensitivity to SIC1 dosage: GAL1-SIC1 overexpression in strains bearing CDC4 alleles. The assay is classed as cell-based, yeast. As for the experimental part:
as §3, §1
Since the cell viability assay nay be masking subtle functional roles for the conserved Cdc4 residues, function was assayed in vivo under more stringent conditions in which Sic1 wt or the stabilized mutants, Sic1 (T33V) or Sic1(T45A) are over-expressed under a galactose promoter. This should amplify defects in cdc4 function. Under these conditions, Trp 717, Tyr 548 and the double mutant K404D/R443D are lethal showing that these residues are in fact important for functions
as §2

Entries after “also recorded” stand apart in the source; their conditions may differ.

T1 sequence (P52286 2-194 limits assumed): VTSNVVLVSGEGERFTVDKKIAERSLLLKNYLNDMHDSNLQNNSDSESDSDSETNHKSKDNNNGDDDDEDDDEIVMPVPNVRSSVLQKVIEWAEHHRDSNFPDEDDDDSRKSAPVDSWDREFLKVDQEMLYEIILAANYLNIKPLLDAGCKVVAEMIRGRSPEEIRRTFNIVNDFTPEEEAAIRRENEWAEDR

B1: R467A: mutant cdc4 polypeptide (protein)
chain: MGSFPLAEFPLRDIPVPYSYRVSGGIASSGSVTALVTAAGTHRNSSTAKTVETEDGEEDIDEYQRKRAAGSGESTPERSDFKRVKHDNHKTLHPVNLQNTGAASVDNDGLHNLTDISNDAEKLLMSVDDGSAAPSTLSVNMGVASHNVAAPTTVNAATITGSDVSNNVNSATINNPMEEGALPLSPTASSPGTTTPLAKTTKTINNNNNIADLIESKDSIISPEYLSDEIFSAINNNLPHAYFKNLLFRLVANMDRSELSDLGTLIKDNLKRDLITSLPFEISLKIFNYLQFEDIINSLGVSQNWNKIIRKSTSLWKKLLISENFVSPKGFNSLNLKLSQKYPKLSQQDRLRLSFLENIFILKNWYNPKFVPQRTTLRGHMTSVITCLQFEDNYVITGADDKMIRVYDSINKKFLLQLSGHDGGVWALKYAHGGILVSGSTDRTVRVWDIKKGCCTHVFKGHNSTVACLDIVEYKNIKYIVTGSRDNTLHVWKLPKESSVPDHGEEHDYPLVFHTPEENPYFVGVLRGHMASVRTVSGHGNIVVSGSYDNTLIVWDVAQMKCLYILSGHTDRIYSTIYDHERKRCISASMDTTIRIWDLENIWNNGECSYATNSASPCAKILGAMYTLQGHTALVGLLRLSDKFLVSAAADGSIRGWDANDYSRKFSYHHTNLSAITTFYVSDNILVSGSENQFNIYNLRSGKLVHANILKDADQIWSVNFKGKTLVAAVEKDGQSFLEILDFSKASKINYVSNPVNSSSSSLESISTSLGLTRTTIIP
On to B1, for which the shuffle entry with cdc4Δ strain is reported as “dead”; with cdc4Δ strain (listed as Arg 467) it was “abolished”; in the assay with cdc4Δ strain (listed as Arg467Ala) it was “unable”. The values for the P-Sic1 pull down result in the assay on phospho-Sic1, with phospho-Sic1 (listed as Arg 467) and in the assay with phospho-Sic1 (listed as Arg467Ala) were “no bind”, “abolished” and “unable to bind”, respectively. Moreover, the Skp1 binding entry with Skp1 is listed as “fully competent”.

B2: R485A: mutant cdc4 polypeptide (protein)
chain: MGSFPLAEFPLRDIPVPYSYRVSGGIASSGSVTALVTAAGTHRNSSTAKTVETEDGEEDIDEYQRKRAAGSGESTPERSDFKRVKHDNHKTLHPVNLQNTGAASVDNDGLHNLTDISNDAEKLLMSVDDGSAAPSTLSVNMGVASHNVAAPTTVNAATITGSDVSNNVNSATINNPMEEGALPLSPTASSPGTTTPLAKTTKTINNNNNIADLIESKDSIISPEYLSDEIFSAINNNLPHAYFKNLLFRLVANMDRSELSDLGTLIKDNLKRDLITSLPFEISLKIFNYLQFEDIINSLGVSQNWNKIIRKSTSLWKKLLISENFVSPKGFNSLNLKLSQKYPKLSQQDRLRLSFLENIFILKNWYNPKFVPQRTTLRGHMTSVITCLQFEDNYVITGADDKMIRVYDSINKKFLLQLSGHDGGVWALKYAHGGILVSGSTDRTVRVWDIKKGCCTHVFKGHNSTVRCLDIVEYKNIKYIVTGSADNTLHVWKLPKESSVPDHGEEHDYPLVFHTPEENPYFVGVLRGHMASVRTVSGHGNIVVSGSYDNTLIVWDVAQMKCLYILSGHTDRIYSTIYDHERKRCISASMDTTIRIWDLENIWNNGECSYATNSASPCAKILGAMYTLQGHTALVGLLRLSDKFLVSAAADGSIRGWDANDYSRKFSYHHTNLSAITTFYVSDNILVSGSENQFNIYNLRSGKLVHANILKDADQIWSVNFKGKTLVAAVEKDGQSFLEILDFSKASKINYVSNPVNSSSSSLESISTSLGLTRTTIIP
With B2, the figures for the shuffle result in the assay on cdc4Δ strain and with cdc4Δ strain (listed as Arg485Ala) were “dead” and “abolished; also recorded: unable”, respectively. In addition, the figures for the P-Sic1 pull down result in the assay on phospho-Sic1 and in the assay on phospho-Sic1 (listed as Arg485Ala) were “no bind” and “abolished; also recorded: unable to bind”, respectively. Besides, in the assay with Skp1, the Skp1 binding entry was “fully competent”.

B3: R443D: mutant cdc4 polypeptide (protein)
chain: MGSFPLAEFPLRDIPVPYSYRVSGGIASSGSVTALVTAAGTHRNSSTAKTVETEDGEEDIDEYQRKRAAGSGESTPERSDFKRVKHDNHKTLHPVNLQNTGAASVDNDGLHNLTDISNDAEKLLMSVDDGSAAPSTLSVNMGVASHNVAAPTTVNAATITGSDVSNNVNSATINNPMEEGALPLSPTASSPGTTTPLAKTTKTINNNNNIADLIESKDSIISPEYLSDEIFSAINNNLPHAYFKNLLFRLVANMDRSELSDLGTLIKDNLKRDLITSLPFEISLKIFNYLQFEDIINSLGVSQNWNKIIRKSTSLWKKLLISENFVSPKGFNSLNLKLSQKYPKLSQQDRLRLSFLENIFILKNWYNPKFVPQRTTLRGHMTSVITCLQFEDNYVITGADDKMIRVYDSINKKFLLQLSGHDGGVWALKYAHGGILVSGSTDDTVRVWDIKKGCCTHVFKGHNSTVRCLDIVEYKNIKYIVTGSRDNTLHVWKLPKESSVPDHGEEHDYPLVFHTPEENPYFVGVLRGHMASVRTVSGHGNIVVSGSYDNTLIVWDVAQMKCLYILSGHTDRIYSTIYDHERKRCISASMDTTIRIWDLENIWNNGECSYATNSASPCAKILGAMYTLQGHTALVGLLRLSDKFLVSAAADGSIRGWDANDYSRKFSYHHTNLSAITTFYVSDNILVSGSENQFNIYNLRSGKLVHANILKDADQIWSVNFKGKTLVAAVEKDGQSFLEILDFSKASKINYVSNPVNSSSSSLESISTSLGLTRTTIIP
Consider B3, for which the figures for the shuffle entry with cdc4Δ strain and in the assay with cdc4Δ strain (listed as Arg443Asp) were “alive” and “indistinguishable from wild type”, respectively. In addition, the P-Sic1 pull down entry in the assay on phospho-Sic1 was “bind”; with phospho-Sic1 (listed as Arg443Asp) it was “indistinguishable from wild type”. Also, in assay [1] (GAL1-SIC1 T33V (partially stabilized Sic1), galactose, 2 days at 30° C.), the “gal Sic1T33V” value is recorded as “alive”. Moreover, in assay [1] (GAL1-SIC1 T45A, galactose, 2 days at 30° C.), the “gal Sic1T45A” value is “dead”. For the same molecule, in assay [1] (GAL1-SIC1 wild type, galactose, 2 days at 30° C.), the “gal Sic1 wt” value was “alive”. For the same molecule, the “viability / sensitivity to increased SIC1 dosage” value in assay [1] (Sic1 wt or stabilized Sic1(T33V) or Sic1(T45A) over-expressed under a galactose promoter) is “indistinguishable from wild type”.
